B1: Adenosylhomocysteinase (Homo sapiens), P23526 (parent)
chain: MSDKLPYKVADIGLAAWGRKALDIAENEMPGLMRMRERYSASKPLKGARIAGCLHMTVETAVLIETLVTLGAEVQWSSCNIFSTQDHAAAAIAKAGIPVYAWKGETDEEYLWCIEQTLYFKDGPLNMILDDGGDLTNLIHTKYPQLLPGIRGISEETTTGVHNLYKMMANGILKVPAINVNDSVTKSKFDNLYGCRESLIDGIKRATDVMIAGKVAVVAGYGDVGKGCAQALRGFGARVIITEIDPINALQAAMEGYEVTTMDEACQEGNIFVTTTGCIDIILGRHFEQMKDDAIVCNIGHFDVEIDVKWLNENAVEKVNIKPQVDRYRLKNGRRIILLAEGRLVNLGCAMGHPSFVMSNSFTNQVMAQIELWTHPDKYPVGVHFLPKKLDEAVAEAHLGKLNVKLTKLTEKQAQYLGMSCDGPFKPDHYRY
B2: Actin filament-associated protein 1-like 1 (Homo sapiens), Q8TED9 (parent)
chain: MDRGQVLEQLLPELTGLLSLLDHEYLSDTTLEKKMAVASILQSLQPLPAKEVSYLYVNTADLHSGPSFVESLFEEFDCDLSDLRDMPEDDGEPSKGASPELAKSPRLRNAADLPPPLPNKPPPEDYYEEALPLGPGKSPEYISSHNGCSPSHSIVDGYYEDADSSYPATRVNGELKSSYNDSDAMSSSYESYDEEEEEGKSPQPRHQWPSEEASMHLVRECRICAFLLRKKRFGQWAKQLTVIREDQLLCYKSSKDRQPHLRLALDTCSIIYVPKDSRHKRHELRFTQGATEVLVLALQSREQAEEWLKVIREVSKPVGGAEGVEVPRSPVLLCKLDLDKRLSQEKQTSDSDSVGVGDNCSTLGRRETCDHGKGKKSSLAELKGSMSRAAGRKITRIIGFSKKKTLADDLQTSSTEEEVPCCGYLNVLVNQGWKERWCRLKCNTLYFHKDHMDLRTHVNAIALQGCEVAPGFGPRHPFAFRILRNRQEVAILEASCSEDMGRWLGLLLVEMGSRVTPEALHYDYVDVETLTSIVSAGRNSFLYARSCQNQWPEPRVYDDVPYEKMQDEEPERPTGAQVKRHASSCSEKSHRVDPQVKVKRHASSANQYKYGKNRAEEDARRYLVEKEKLEKEKETIRTELIALRQEKRELKEAIRSSPGAKLKALEEAVATLEAQCRAKEERRIDLELKLVAVKERLQQSLAGGPALGLSVSSKPKSGETANKPQNSVPEQPLPVNCVSELRKRSPSIVASNQGRVLQKAKEWEMKKT
partner: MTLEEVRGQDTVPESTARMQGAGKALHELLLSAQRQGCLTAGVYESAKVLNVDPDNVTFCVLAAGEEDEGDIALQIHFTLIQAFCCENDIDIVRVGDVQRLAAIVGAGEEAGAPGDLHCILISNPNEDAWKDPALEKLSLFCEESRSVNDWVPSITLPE
B3: Meiotic recombination protein DMC1/LIM15 homolog (Homo sapiens), Q14565 (parent)
chain: MKEDQVVAEEPGFQDEEESLFQDIDLLQKHGINVADIKKLKSVGICTIKGIQMTTRRALCNVKGLSEAKVDKIKEAANKLIEPGFLTAFEYSEKRKMVFHITTGSQEFDKLLGGGIESMAITEAFGEFRTGKTQLSHTLCVTAQLPGAGGYPGGKIIFIDTENTFRPDRLRDIADRFNVDHDAVLDNVLYARAYTSEHQMELLDYVAAKFHEEAGIFKLLIIDSIMALFRVDFSGRGELAERQQKLAQMLSRLQKISEEYNVAVFVTNQMTADPGATMTFQADPKKPIGGHILAHASTTRISLRKGRGELRIAKIYDSPEMPENEATFAITAGGIGDAKE
partner: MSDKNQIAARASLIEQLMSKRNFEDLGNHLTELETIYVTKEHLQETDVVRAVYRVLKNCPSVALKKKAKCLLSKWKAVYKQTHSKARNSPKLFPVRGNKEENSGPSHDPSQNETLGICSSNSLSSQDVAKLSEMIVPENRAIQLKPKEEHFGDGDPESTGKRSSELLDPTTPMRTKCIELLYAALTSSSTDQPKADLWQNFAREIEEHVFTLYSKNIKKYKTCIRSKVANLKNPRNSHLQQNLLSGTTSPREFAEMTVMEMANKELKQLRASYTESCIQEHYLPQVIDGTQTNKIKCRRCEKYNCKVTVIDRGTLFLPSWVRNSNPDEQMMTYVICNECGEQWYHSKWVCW
B4: Zinc finger CCHC domain-containing protein 10 (Homo sapiens), Q8TBK6 (parent)
chain: MATPMHRLIARRQAFDTELQPVKTFWILIQPSIVISEANKQHVRCQKCLEFGHWTYECTGKRKYLHRPSRTAELKKALKEKENRLLLQQSIGETNVERKAKKKRSKSVTSSSSSSSDSSASDSSSESEETSTSSSSEDSDTDESSSSSSSSASSTTSSSSSDSDSDSSSSSSSSTSTDSSSDDEPPKKKKKK
partner: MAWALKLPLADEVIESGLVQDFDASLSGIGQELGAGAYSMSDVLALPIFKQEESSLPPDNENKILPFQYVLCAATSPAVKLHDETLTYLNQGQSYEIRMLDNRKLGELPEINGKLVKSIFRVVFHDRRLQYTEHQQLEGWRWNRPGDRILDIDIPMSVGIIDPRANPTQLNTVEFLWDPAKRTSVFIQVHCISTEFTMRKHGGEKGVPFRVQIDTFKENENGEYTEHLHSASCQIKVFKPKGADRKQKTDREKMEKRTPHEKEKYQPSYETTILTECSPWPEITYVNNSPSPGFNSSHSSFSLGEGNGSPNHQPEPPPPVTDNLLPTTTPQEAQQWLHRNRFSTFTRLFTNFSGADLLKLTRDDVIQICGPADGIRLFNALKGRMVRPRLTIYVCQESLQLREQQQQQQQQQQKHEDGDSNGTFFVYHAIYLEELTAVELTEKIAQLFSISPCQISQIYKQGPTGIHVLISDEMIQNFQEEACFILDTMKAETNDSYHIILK
B5: UBX domain-containing protein 2B (Homo sapiens), Q14CS0 (parent)
chain: MAEGGGPEPGEQERRSSGPRPPSARDLQLALAELYEDEVKCKSSKSNRPKATVFKSPRTPPQRFYSSEHEYSGLNIVRPSTGKIVNELFKEAREHGAVPLNEATRASGDDKSKSFTGGGYRLGSSFCKRSEYIYGENQLQDVQILLKLWSNGFSLDDGELRPYNEPTNAQFLESVKRGEIPLELQRLVHGGQVNLDMEDHQDQEYIKPRLRFKAFSGEGQKLGSLTPEIVSTPSSPEEEDKSILNAVVLIDDSVPTTKIQIRLADGSRLIQRFNSTHRILDVRNFIVQSRPEFAALDFILVTSFPNKELTDESLTLLEADILNTVLLQQLK
partner: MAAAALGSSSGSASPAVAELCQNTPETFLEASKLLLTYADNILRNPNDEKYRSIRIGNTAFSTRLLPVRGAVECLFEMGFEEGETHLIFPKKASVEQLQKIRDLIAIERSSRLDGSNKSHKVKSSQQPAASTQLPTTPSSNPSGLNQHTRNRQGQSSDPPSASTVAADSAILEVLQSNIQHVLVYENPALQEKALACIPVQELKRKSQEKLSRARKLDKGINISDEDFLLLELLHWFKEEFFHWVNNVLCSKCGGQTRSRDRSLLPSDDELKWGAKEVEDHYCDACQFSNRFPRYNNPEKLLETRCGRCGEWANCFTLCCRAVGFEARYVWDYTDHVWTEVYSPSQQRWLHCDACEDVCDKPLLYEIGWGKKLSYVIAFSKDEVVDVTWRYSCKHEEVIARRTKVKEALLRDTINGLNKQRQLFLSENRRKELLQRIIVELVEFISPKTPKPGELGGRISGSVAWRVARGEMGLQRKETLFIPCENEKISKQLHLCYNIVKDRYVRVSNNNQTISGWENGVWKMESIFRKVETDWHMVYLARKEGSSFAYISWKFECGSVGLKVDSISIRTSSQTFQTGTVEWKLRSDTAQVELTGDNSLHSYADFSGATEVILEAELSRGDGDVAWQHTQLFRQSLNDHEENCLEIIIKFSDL
B6: Fibronectin type III and SPRY domain-containing protein 2 (Homo sapiens), A1L4K1 (parent)
chain: MEEESGEELGLDRSTPKDFHFYHMDLYDSEDRLHLFPEENTRMRKVVQAEMANESRGAGDGKAQRDLQEEVDELVHLYGLEDDHELGDEFVDENIPRTGVSEYPPYMMKRRDPAREQRDWRLSGEAAEAEDLGFGGWGSAGQCQDLREAYRYTHGRASEEYECYVIPEEEDEEEAADVFCVTCKTPIRAFQKVFDEHKEHEVIPLNEALESAKDEIHKNMYKLEKQIIEMENFANHLEEVFITVEENFGKQEQNFESHYNEILETLAQKYEEKIQALGEKKKEKLEALYGQLVSCGENLDTCKELMETIEEMCHEEKVDFIKDAVAMADRLGKFLKTKTDVEISAQPEFEDQTLDFSDVEQLMGSINTIPAPSAPVINPQVPNSATGSSVRVCWSLYSDDTVESYQLSYRPVQDSSPGTDQAEFTVTVKETYCSVTNLVPNTQYEFWVTAHNRAGPSPSSERAVYMTAPSPPIIKTKEIRSCEEAVLICWESGNLNPVDSYTVELTQAESPEASGVTESVVGIPTCESVVQLQPGRSYIIYVRALNMGGPSVRSEPATVHTIGSYFRLNKDTCHPWLTISEDGLTAVRSERRTPARELSPSDTHFTRCVAVMGNLIPVRGHHYWEVEVDEHLDYRVGVAFADVRKQEDLGANCLSWCMRHTFASSRHKYEFLHNRTTPDIRITVPPKKIGILLDYEHSKLSFFNVDLSQHLYTFSCQLHEFVHPCFSLEKPGCLKVHNGISMPKHVTFY
partner: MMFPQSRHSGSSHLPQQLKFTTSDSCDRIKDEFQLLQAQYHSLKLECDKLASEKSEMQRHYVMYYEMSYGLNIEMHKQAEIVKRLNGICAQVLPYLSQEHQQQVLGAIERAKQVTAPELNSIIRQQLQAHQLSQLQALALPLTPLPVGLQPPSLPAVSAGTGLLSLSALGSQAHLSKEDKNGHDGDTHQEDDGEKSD
B7: Protein FAM9B (Homo sapiens), Q8IZU0 (parent)
chain: MAAWGKKHAGKDPVRDECEERNRFTETREEDVTDEHGEREPFAETDEHTGANTKKPEDTAEDLTAKRKRMKMDKTCSKTKNKSKHALRKKQLKRQKRDYIHSLKLLNVLEEYITDEQKEEEEEEGEEEELIRIFQEQQKKWQQYRSVRRERLKEMKLLRDQFVKALEDFEDLCDRVFSDEDSELDN
partner: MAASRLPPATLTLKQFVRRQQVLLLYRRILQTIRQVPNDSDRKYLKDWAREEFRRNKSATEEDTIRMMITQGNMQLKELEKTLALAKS
B8: UPF0688 protein C1orf174 (Homo sapiens), Q8IYL3 (parent)
chain: MRSRKLTGAVRSSARLKARSCSAARLASAQEVAGSTSAKTACLTSSSHKATDTRTSKKFKCDKGHLVKSELQKLVPKNDSASLPKVTPETPCENEFAEGSALLPGSEAGVSVQQGAASLPLGGCRVVSDSRLAKTRDGLSVPKHSAGSGAEESNSSSTVQKQNEPGLQTEDVQKPPLQMDNSVFLDDDSNQPMPVSRFFGNVELMQDLPPASSSCPSMSRREFRKMHFRAKDDDDDDDDDAEM

One experiment covers variants of B1. Conditions: with ca050_human C1orf50, Q9BV19.
ca050_human C1orf50, Q9BV19, sequence (Q9BV19 whole entry): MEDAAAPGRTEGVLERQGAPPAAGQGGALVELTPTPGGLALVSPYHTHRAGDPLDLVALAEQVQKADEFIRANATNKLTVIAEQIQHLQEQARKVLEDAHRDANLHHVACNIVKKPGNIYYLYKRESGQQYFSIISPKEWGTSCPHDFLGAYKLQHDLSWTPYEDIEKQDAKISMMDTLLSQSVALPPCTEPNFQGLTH
In the case of I92V, the “effect of a mutation on the interaction” value is “with no effect”.

In the next experiment the parent is B2. Conditions: with ga45g_human GADD45G.
With L406P, the “effect of a mutation on the interaction” value is reported as “with no effect”.

The variants in another experiment derive from B3. Conditions: with teanc_human TCEANC.
Take MKEDQVVAEEPGFQDEEESLFQDIDLLQKHGINVADIKKLKSVGICTIKGIQMTTRRALCNVKGLSEAKVDKIKEAANKLIEPGFLTAFEYSEKRKMVFHITTGSQEFDKLLGGGIESMAITEAFGEFRTGKTQLSHTLCVTAQLPGAGGYPGGKIIFIDTENTFRPDRLRDIADRFNVDHDAVLDNVLYARAYTSEHQMELLDYVAAKFHEEAGIFKLLIIDSIMALFRVDFSGRGELAERQQKLAQMLSRLQKISEEYNVAVFVTNQMTADPGATMTFQADPKKPTGGHILAHASTTRISLRKGRGELRIAKIYDSPEMPENEATFAITAGGIGDAKE [I288T]: the “effect of a mutation on the interaction” value is listed as “with no effect”.

A further experiment covers variants of B4. Conditions: with tfcp2_human TFCP2, Q12800.
In the case of S153P, the “effect of a mutation on the interaction” value is recorded as “with no effect”.

Another experiment covers variants of B5. The settings on record: with ngly1_human NGLY1, Q96IV0.
On to MAEGGGPEPGEQERRSSGPRPPSARDLQLALAELYEDEVKCKSSKSNRPKATVFKSPRTPPQRFYSSEHEYSGLNIVRPSTGKIVNELFKEAREHGAVPLNEATRASGADKSKSFTGGGYRLGSSFCKRSEYIYGENQLQDVQILLKLWSNGFSLDDGELRPYNEPTNAQFLESVKRGEIPLELQRLVHGGQVNLDMEDHQDQEYIKPRLRFKAFSGEGQKLGSLTPEIVSTPSSPEEEDKSILNAVVLIDDSVPTTKIQIRLADGSRLIQRFNSTHRILDVRNFIVQSRPEFAALDFILVTSFPNKELTDESLTLLEADILNTVLLQQLK [D109A], for which the “effect of a mutation on the interaction” value is “with no effect”.

The next experiment covers variants of B6. The settings on record: with tle5_human TLE5, Q08117.
As to K333T, the “effect of a mutation on the interaction” value is recorded as “with no effect”.
As for E720K, the “effect of a mutation on the interaction” value is listed as “with no effect”.

Another experiment covers variants of B7. The settings on record: with lyrm2_human LYRM2, Q9NU23.
For R23H, the “effect of a mutation on the interaction” value is “with no effect”.

A further experiment covers variants of B8. The settings on record: with ikzf1_human IKZF1, Q13422.
ikzf1_human IKZF1, Q13422, sequence (Q13422 whole entry): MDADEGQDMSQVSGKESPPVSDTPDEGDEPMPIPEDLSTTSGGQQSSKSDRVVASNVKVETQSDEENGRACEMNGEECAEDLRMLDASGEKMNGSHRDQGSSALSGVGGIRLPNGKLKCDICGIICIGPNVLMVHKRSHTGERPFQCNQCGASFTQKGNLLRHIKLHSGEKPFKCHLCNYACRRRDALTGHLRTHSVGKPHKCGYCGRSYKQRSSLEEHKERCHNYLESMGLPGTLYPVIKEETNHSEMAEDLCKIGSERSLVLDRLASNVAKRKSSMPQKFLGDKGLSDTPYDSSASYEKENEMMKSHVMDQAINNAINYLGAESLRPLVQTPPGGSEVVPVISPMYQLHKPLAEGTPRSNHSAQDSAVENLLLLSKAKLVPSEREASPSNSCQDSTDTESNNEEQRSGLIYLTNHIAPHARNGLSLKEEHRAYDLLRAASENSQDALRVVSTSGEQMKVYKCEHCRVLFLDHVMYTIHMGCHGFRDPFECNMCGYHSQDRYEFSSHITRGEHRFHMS
Turning to A81T, the “effect of a mutation on the interaction” value was “with no effect”.

The values above are taken from IntAct's records for PubMed 31515488.
